Here are results for one molecule from patent US20250263481A1 (SHIJIAZHUANG YILING PHARMACEUTICAL, published 2025).

Experiment [1] concerns the target human CLDN18.2 expressed on cells (human). In words: cell-based or functional assay.
Experiment [2] shares this target. In words: cell-based or functional assay. This is another data set of the same source.
For experiment [3] the target is unchanged. In words: cell-based or functional assay. This is another data set of the same source.
Experiment [4] shares this target. In words: cell-based or functional assay. This is another data set of the same source.
For experiment [5], the target named is T1, human CLDN18.2 expressed on cells (human).
T1 construct: also called huCLDN18.2; CLDN18.2-expressing 293T cells
The experiment can be described thus: flow cytometry (percent FITC-positive cells, GAH-FITC secondary) on CHO cells expressing huCLDN18.2. The protocol:
CHO cells expressing huCLDN18.2 were used to assess the binding of the antibodies. Cells were seeded at 5×10⁵ cells per 100 μl into a well of a 96-well plate for each sample. Then, 100 μl of each serially diluted antibody was added to the cells, each dilution started at 40 µg/ml and was diluted 5-fold. Therefore, the final concentration of each antibody starts at 20 µg/ml followed by a 5-fold serial dilution. After 1 hour, the cells were washed twice and 100 μl of GAH-FITC (1:200 dilution) was added to each well. After 30 minutes, the cells were washed twice and resuspended in 120 μl of FACS buffer. The cells were analyzed via flow cytometry.
Unstained cells were used as a reference to set up overall target cell gating and to establish the FITC-negative populations, allowing us to establish the FITC-positive cell gate for each cell line. Additionally, the mean fluorescence intensity (MFI) of the entire population of cells was calculated to secondarily validate the FITC-positive results. The ratio of the gated positive cell number to the total live cell number is taken as the percentage of positive cells.

Experiment [6] addresses T1, human CLDN18.2 expressed on cells. In words: cell-based or functional assay. This is another data set of the same source.
Experiment [7] has the same target. The experiment can be described thus: KinExA 4000, antibody constant, CHO cells over-expressing huCLDN18.2 titrated. The protocol:
A KinExA 4000 instrument was also used to measure binding affinity of the antibodies to surface protein of intact cells, i.e., CHO cells over-expressing huCLDN18.2. Concentration of the antibodies was held constant (CBP) and concentration of whole cells with surface protein were varied (titrant). Concentration of whole cells with surface proteins were diluted three-fold. Titrated cells were incubated with the constant binding partner (CBP). Once equilibrium was reached, the samples were centrifuged, the supernatants were recovered, and the free CBP was detected with a fluorescently labeled anti-CBP molecule.
To establish a more accurate Kd, two equilibrium curves were prepared and analyzed. One curve with low concentration of CBP at 100 pM (200 pM binding sites) and 10⁶ cells/mL with three-fold dilutions, and one curve with high concentration of CBP at 10 nM (20 nM binding sites) and 10⁶ cells/mL with three-fold dilutions. The KinExA 4000 measured the amount of unbound CBP in solution. Analysis was performed using Sapidyne Instruments n-Curve Analysis Software version 4.4.26.
A general note: Kinetic exclusion samples the free partner from a solution-phase mixture.

B1: YL-G2-B (antibody, human IgG1, kappa)
heavy: EVQLQQSGPELEKPGASVKISCKASGYSFTGYKMNWVKQSNGKSLEWIGNIDPYYGGTTYNQKFKGKATLTVDKSSSTAYMQLKSLTSEDSAVYYCARYGKGNTMDYWGQGTSVTVSSASTKGPSVFPLAPSSKSTSGGTAALGCLVKDYFPEPVTVSWNSGALTSGVHTFPAVLQSSGLYSLSSVVTVPSSSLGTQTYICNVNHKPSNTKVDKRVEPKSCDKTHTCPPCPAPELVGGPSVFLLPPKPKDTLMISRTPEVTCVVVDVSHEDPEVKFNWYVDGVEVHNAKTKPPEEQYNSTLRVVSVLTVLHQDWLNGKEYKCKVSNKALPAPIEKTISKAKGQPREPQVYTLPPSREEMTKNQVSLTCLVKGFYPSDIAVEWESNGQPENNYKTTPLVLDSDGSFFLYSKLTVDKSRWQQGNVFSCSVMHEALHNHYTQKSLSLSPGK
light: DIVMTQSPSSLTVTAGEKVTMSCKSSQSLLNSGNQKNYLTWYQQRPGQPPKLLIYWASTRESGVPVRFTGSGSGTDFTLTISSVQAEDLAVYYCQNAYIYPLTFGTGTKLELKRTVAAPSVFIFPPSDEQLKSGTASVVCLLNNFYPREAKVQWKVDNALQSGNSQESVTEQDSKDSTYSLSSTLTLSKADYEKHKVYACEVTHQGLSSPVTKSFNRGEC
notes: also called YL-G2-B batch 1; YL-G2-B batch 2
B1: in experiment [1], the “ADCC, FACS: EC50” value is 0.0073 nM and the “ADCC, LDH: EC50” value was determined as 0.012 nM. In experiment [2], the “CDC on CT26 CLDN18.2 cells, LDH: EC50 (batch 1)” value amounted to 0.14 nM and the “CDC on CT26 CLDN18.2 cells, LDH: EC50 (batch 2)” value was 0.12 nM. For the same molecule, in experiment [3], the “ADCC on KATOIII CLDN18.2 cells, LDH: EC50 (batch 1)” value was 0.028 nM and the “ADCC on KATOIII CLDN18.2 cells, LDH: EC50 (batch 2)” value amounted to 0.018 nM. Also, in experiment [4], the “ADCC on NCI-N87 CLDN18.2 cells, LDH: EC50 (batch 1)” value was determined as 0.0067 nM and the “ADCC on NCI-N87 CLDN18.2 cells, LDH: EC50 (batch 2)” value worked out at 0.012 nM. Moreover, the EC50 (read off the curve) – broadly, the concentration needed to bring the measured effect to its halfway point – in experiment [5] is ~0.6 ng/mL. In addition, in experiment [6], the “CDC on KATOIII CLDN18.2 cells, LDH: EC50 (batch 1)” value stood at 1.24 nM and the “CDC on KATOIII CLDN18.2 cells, LDH: EC50 (batch 2)” value is 1.33 nM. Also, the affinity in experiment [7], expressed as Kd, was 0.0094 nM.
